Laboratory results published in paper PMC9335864 (Journal of the American Chemical Society, 2022).
Changes are numbered by the printed parent chain. Where two headings read alike, the source gives them in different places. Each block holds one binder with its values, some of them ahead of it.

Columns and labels:
[1] = target: full-length p47 (human, UniProt Q9UNZ2); experiment: SPR; competition: as for p47-UBX but with full-length p47 on immobilised p97 (Figure S7); conditions: both partners purified
[2] = target: T1, p47-UBX domain (Homo sapiens, biotin (site not stated) where anchored on the BLI sensor tip); experiment: BLI; biotinylated p47-UBX anchored on the sensor tip; increasing amounts of each scFv; dose-response profiles; conditions: both partners purified
T1 chain: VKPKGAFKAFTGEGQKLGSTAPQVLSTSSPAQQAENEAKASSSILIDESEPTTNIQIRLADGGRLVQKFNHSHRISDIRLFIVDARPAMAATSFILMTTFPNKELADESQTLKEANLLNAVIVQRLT

[3] = target: T2, p37-UBX domain (Homo sapiens); experiment: BLI; selectivity of the scFvs against the p97-binding domains of other adaptor proteins (NPL4-UBXL, FAF1-UBX, p37-UBX) beside p47-UBX; set-up not told in the main text; conditions: both partners purified
T2 chain: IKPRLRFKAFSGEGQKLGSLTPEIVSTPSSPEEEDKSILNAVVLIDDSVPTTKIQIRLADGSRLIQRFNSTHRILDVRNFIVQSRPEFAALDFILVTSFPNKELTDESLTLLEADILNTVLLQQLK

[4] = target: p47 (endogenous) (human (endogenous in U2OS), UniProt Q9UNZ2); experiment: co-IP; co-IP of p47 from lysates of U2OS cells transfected with plasmids for HA-tagged antibody fragments; p47-containing complexes captured and blotted; conditions: partners not purified
[5] = target: p97 (endogenous) (human (endogenous in U2OS), UniProt P55072); experiment: co-IP; co-IP of p97 from U2OS cells expressing scFv-A06 (Figure S10); conditions: partners not purified
[6] = target: T3, C-terminal Halo-tagged p47-UBX domain (Homo sapiens); experiment: FRET or BRET; NanoBRET in p47-knockout U2OS cells: Nanoluciferase-p97-N donor, p47-UBX-HaloTag acceptor, co-transfected with antibody-fragment or p47-FLAG plasmids; compared with scFv-RNase and scFab-RNase controls; conditions: partners not purified
T3 chain: T1 chain

[7] = target: T1, p47-UBX domain; experiment: SPR; competition: biotinylated full-length p97 on a streptavidin chip; mixture of increasing concentrations of scFv and a fixed concentration of p47-UBX flowed over; with 100 uM ATP or 100 uM ADP; conditions: both partners purified
[8] = target: T1, p47-UBX domain
[9] = target: full-length human p97 (human, UniProt P55072 1-806, biotin (site not stated)); experiment: SPR; competition: as for p47-UBX but with full-length p47 on immobilised p97 (Figure S7); conditions: both partners purified
full-length human p97, sequence (P55072 whole entry): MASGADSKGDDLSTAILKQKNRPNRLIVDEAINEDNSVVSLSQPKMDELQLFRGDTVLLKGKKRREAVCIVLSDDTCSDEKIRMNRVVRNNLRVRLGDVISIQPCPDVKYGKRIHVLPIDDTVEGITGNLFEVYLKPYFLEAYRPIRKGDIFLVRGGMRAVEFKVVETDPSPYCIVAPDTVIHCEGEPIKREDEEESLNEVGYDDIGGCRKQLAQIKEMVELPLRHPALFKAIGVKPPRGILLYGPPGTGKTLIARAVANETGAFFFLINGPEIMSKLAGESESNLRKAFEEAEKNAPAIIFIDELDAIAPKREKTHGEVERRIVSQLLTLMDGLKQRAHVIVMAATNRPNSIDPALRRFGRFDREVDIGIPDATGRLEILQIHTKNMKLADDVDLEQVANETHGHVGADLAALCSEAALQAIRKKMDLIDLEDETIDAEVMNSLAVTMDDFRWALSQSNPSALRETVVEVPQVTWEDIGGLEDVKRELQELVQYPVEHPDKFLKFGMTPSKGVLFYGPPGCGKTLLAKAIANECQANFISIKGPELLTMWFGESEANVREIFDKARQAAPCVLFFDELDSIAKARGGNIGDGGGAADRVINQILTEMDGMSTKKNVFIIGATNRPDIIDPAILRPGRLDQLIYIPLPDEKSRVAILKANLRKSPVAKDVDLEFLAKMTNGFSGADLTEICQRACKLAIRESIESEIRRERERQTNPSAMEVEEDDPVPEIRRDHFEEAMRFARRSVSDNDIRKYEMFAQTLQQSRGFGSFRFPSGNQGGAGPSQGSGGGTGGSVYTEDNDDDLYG

p97 (endogenous), sequence (P55072 whole entry, the tested form may be a part): as the sequence (P55072 whole entry) above

B1: scFv-A06 (scFv, V domains shown)
VH: QVQLVESGGGLVQPGGSLRLSCAASGFNISSYSMHWVRQAPGKGLEWVASISSSYGSTYYADSVKGRFTISADTSKNTAYLQMNSLRAEDTAVYYCARSDWYYGDAWGVPYYAFDYWGQGTLVTVSS
VL: DIQMTQSPSSLSASVGDRVTITCRASQSVGSALAWYQQKPGKAPKLLIYSASSLYSGVPSRFSGSRSGTDFTLTISSLQPEDFATYYCQQSWFLITFGQGTKVEIK
binding result [1]: binds
Kd [2]: ~3 nM
binding result [3]: no binding

B2: scFab-A06 with C-terminal HA tag, expressed in cells (Fab, V domains shown)
VH: B1 VH with Q1E
VL: B1 VL
binding result [4]: binds

B3: scFab-NLS A06 with C-terminal HA tag, expressed in cells (Fab, V domains shown)
VH: B1 VH with Q1E
VL: B1 VL
binding result [4]: binds

B4: scFv-A06 with C-terminal HA tag, expressed in cells (scFv, V domains shown)
VH: B1 VH
VL: B1 VL
binding result [5]: binds
binding result [4]: binds
reduction of the BRET ratio of the p97-N/p47-UBX pair [6]: ~15%

B5: scFv-B01 (scFv, V domains shown)
VH: QVQLVESGGGLVQPGGSLRLSCAASGFNISSYYMHWVRQAPGKGLEWVASIYPSYSSTSYADSVKGRFTISADTSKNTAYLQMNSLRAEDTAVYYCARSSDYDRYWYWSYDAFDYWGQGTLVTVSS
VL: B1 VL with F93D, I95F
binding result [1]: binds
binding result [7]: binds

B6: scFv-G08 (scFv, V domains shown)
VH: QVQLVESGGGLVQPGGSLRLSCAASGFNISYSYIHWVRQAPGKGLEWVAYIYPYSGSTYYADSVKGRFTISADTSKNTAYLQMNSLRAEDTAVYYCARDPHWAMDYWGQGTLVTVSS
VL: DIQMTQSPSSLSASVGDRVTITCRASQSVGSALAWYQQKPGKAPKLLIYSASSLYSGVPSRFSGSRSGTDFTLTISSLQPEDFATYYCQQSFSSVPFTFGQGTKVEIK
binding result [1]: binds
binding result [7]: binds

B7: scFv-A04 (antibody, V domains shown)
VH: QVQLVESGGGLVQPGGSLRLSCAASGFNVYSSSIHWVRQAPGKGLEWVASIYPSYGSTYYADSVKGRFTISADTSKNTAYLQMNSLRAEDTAVYYCARSYEWKYSYYRGGFDYWGQGTLVTVSS
VL: DIQMTQSPSSLSASVGDRVTITCRASQSVSSAVAWYQQKPGKAPKLLIYSASSLYSGVPSRFSGSRSGTDFTLTISSLQPEDFATYYCQQGYYLPVTFGQGTKVEIK
binding result [8]: binds

Results, then the binder that gave them:

binding result [4]: binds
B8: scFv-E04 with C-terminal HA tag, expressed in cells (scFv, V domains shown)
VH: QVQLVESGGGLVQPGGSLRLSCAASGFNFSSYSIHWVRQAPGKGLEWVASISPYYGSTYYADSVKGRFTISADTSKNTAYLQMNSLRAEDTAVYYCARYKYYMSGRYTWALDYWGQGTLVTVSS
VL: B7 VL with G91E, Y92F, Y93F, L94V, V96F

binding result [4]: binds
B9: scFab-NLS E04 with C-terminal HA tag, expressed in cells (Fab, V domains shown)
VH: B8 VH with Q1E
VL: B7 VL with G91E, Y92F, Y93F, L94V, V96F

binding result [1]: binds
Kd [2]: ~7 nM
Kd [3]: ~4 nM
B10: scFv-E04 (scFv, V domains shown)
VH: B8 VH
VL: B7 VL with G91E, Y92F, Y93F, L94V, V96F

binding result [4]: binds
B11: scFab-E04 with C-terminal HA tag, expressed in cells (Fab, V domains shown)
VH: B8 VH with Q1E
VL: B7 VL with G91E, Y92F, Y93F, L94V, V96F

binding result [9]: binds
B12: full-length p47 (natural protein, human, UniProt Q9UNZ2 1-370, looked up)
chain: MAAERQEALREFVAVTGAEEDRARFFLESAGWDLQIALASFYEDGGDEDIVTISQATPSSVSRGTAPSDNRVTSFRDLIHDQDEDEEEEEGQRFYAGGSERSGQQIVGPPRKKSPNELVDDLFKGAKEHGAVAVERVTKSPGETSKPRPFAGGGYRLGAAPEEESAYVAGEKRQHSSQDVHVVLKLWKSGFSLDNGELRSYQDPSNAQFLESIRRGEVPAELRRLAHGGQVNLDMEDHRDEDFVKPKGAFKAFTGEGQKLGSTAPQVLSTSSPAQQAENEAKASSSILIDESEPTTNIQIRLADGGRLVQKFNHSHRISDIRLFIVDARPAMAATSFILMTTFPNKELADESQTLKEANLLNAVIVQRLT
